The source of these data is the nanobody polyreactivity screen of Harvey et al. (2022).

This data set can be described thus: yeast display, Sf9 membrane polyspecificity reagent, FACS + sequencing; frameworks hold sequencing errors. Summed up:
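Using colony PCR, genes from sorted yeast display clones were amplified, then sequenced on MiSeq at 2 × 250 and filtered by CDR length. The clones had been stained with 10% biotinylated, detergent-solubilized Sf9 membrane reagent for 1 hour at 4 °C and sorted by FACS into low and high (top ~1%) gates on anti-HA and streptavidin fluorescence. Polyreactivity labels come from the gate of origin.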
Take “QVQLVESGGGLVQAGGSLLLSCAAYGSTFWYNAMGWYRQAHGKESELVAAITWTGSRTYYADSVKGRFTISRDNAKNTVYLQMNSLKPEDTAVYYCNRTRSFTRYDVFYGTIPAFDYWGQGTQVTVSS”: the “polyreactivity (PSR sort gate)” value is listed as “high polyreactivity”.

On to “QVQLVESGGGLVQAGGSLRLSCAASGITFTSYAMGWYRQAPGKERELVAAISTRVGRTYYADSVKGRFTISRDNAKNTVYLQMNSLKPEDTAVYYCAADRISQGYSTYNYWGQGTQVTVSS”, for which the “polyreactivity (PSR sort gate)” value was “high polyreactivity”.

Regarding “QVQLVESGGGLFQAGGSLRLSCAASGFTPGNVRGCYRQAPGKERELVAAISWSADSTYYADSVKGRFTISRDNAKNTVNLQMKSLKREDSAVYYCSADGVPGRAVDYEYWRQGTQVTVSS”, the “polyreactivity (PSR sort gate)” value was “high polyreactivity”.

On to “QVPLVESGGGLVQAGGSLRLSCAASGFTFYAYTMGWYRQAPGKERELVAAINKSGSSKYYADSVKGRFTISRDNAKNTVYLQMNSLKPEDTAVYFCNAYYRKVLGYDKMDYWGQGTQVTVSS”, for which the “polyreactivity (PSR sort gate)” value was “high polyreactivity”.

Regarding “QVQLVESGGGLVQAGGSLRLSCAASGRTIDRMLMGSYRQAPGKERELVAAITSGGRTNYADSVKGRFTISRDNAKNTVYLKMNSLKAEDTAFYYCARHGGRRPVSSKGNTYDYWGQGTQVTVLS”, the “polyreactivity (PSR sort gate)” value is “low polyreactivity”.

As for “QVQLVESGGGLVQAGGSLRLSCAASGSTYYPNAMGWYRQAPGKERELVAAISRGTRTKYADSVKGRFTISRDNAKNTVYLQMNSLKPEDTAVYYCAVLTYRGRFEYWGQGTQVTVSS”, the “polyreactivity (PSR sort gate)” value is on record as “high polyreactivity”.

For the sequence “QVQLVESGGGLVQAGGSLRLSCAASGITFPWYAMGWYRQAPGKERELVASKTSGASTNYADSVKGRFTISRDNAKNTVYLQMNSLKPEYSAVYYCARDWYSPVYWAAGYDAWGSGYDYWGQGTQVTVSS”, the “polyreactivity (PSR sort gate)” value was “high polyreactivity”.

“QVQVVESGGGLLQAGGSLRLSCASSGSTFQYNAMGRYRPAPRKERELVAVITRRGGRTYYADSVKGRFTISRDNAKNTVYLQMNSLKPEDTAVYYCAAYYDYTHRFYYWGQGTQVTVSS”: the “polyreactivity (PSR sort gate)” value was “high polyreactivity”.

As to “QVQLVESGGGLVQAGGSLRLSCAASGFTFSTYAMGWYRQAPGKERECVAAISSGGTTNYADSVKGRFTISRDNAKNTVYLQMNSLKPEDSAVYYCAADWYRYYEYGAYGYWGQGTQVTLSS”, the “polyreactivity (PSR sort gate)” value is reported as “low polyreactivity”.

Turning to “QVQLVESGGGLVQAGGSLRLSCAASGSTFGYYAMGWYRQAPGKERELVASINWRGDSTYYADSVKGRFTISRDNAKNTVYLQMNSLKPEDTAVYYCNVKPSARGSPLYDYWGQGTQVTVSS”, the “polyreactivity (PSR sort gate)” value is listed as “high polyreactivity”.

For “QVQLVESGGGLVQAGGSLRLSCAASGRTFTVYAMGWYRQAPGKERELVAAINYSGGRTYYADSVKGRFTISRDNAKNTVYLQMNSLKPEDTAVYYCAAYVYQSSPRYSRYGGYDYWGQGTQVTVSS”, the “polyreactivity (PSR sort gate)” value is “low polyreactivity”.

“QVPLVESGGGLVHAVGSLRLSCAASGSIFYPYAMGWNRKAPWKERELVARITSGGSTHYADSVKGRFTISRDNDNHNVYLHMNSLKPEDTAVYYFNADYWFVEYDYWGQGTQVTVSS”: the “polyreactivity (PSR sort gate)” value was “low polyreactivity”.

Regarding “QVQLVESGGGLVQAGGSLRLSCAASGFTFLRYAMGWYRQAPGKERELVAAITRGGTTYYADSVKGRFTISRDNAKNTVYLQMNSLKPEDTAVYYCNTLTSYTRYNYWGQGTQVTVSS”, the “polyreactivity (PSR sort gate)” value was “high polyreactivity”.

“QVQLVESGGGLVQAGGTLRLSCSASGGTIAIYAMGWYRHARGKEREMVARISYSSGSTHYADSVKGRFTISRDNAKNTVFLQMNSLKPEDSAVYYCAATAYWFYAKDYYWGQGSQVTVSS”: the “polyreactivity (PSR sort gate)” value was “high polyreactivity”.

On to “QVQLVESGGRLVQAGGSLRLSCAASGRIFRDNAMGWYRQAPGKEMELVATIRSGTNTNYADSVKGRFTISRDYAKNTVYLQMNSLKPEDTAVYYCAADLWGSHYTEYRRYPYEYDYWGQGTQVTLSS”, for which the “polyreactivity (PSR sort gate)” value is “low polyreactivity”.

“QVQLVESGGGLVQAGGSLRLSCASSGFTINWNDMGWYRQAPGKERELVAAISGGASTYYADSVKGRFTISRDNAKNTVYLQMNSLKPEDTAVYYCAADLDEWGYLFDYWGQGTQVTVSS”: the “polyreactivity (PSR sort gate)” value is “low polyreactivity”.

As to “QFQLVESGGGLVQEGGSLRLSCASSGRTFVSNAMGWYRQAPGKERELVAAISRRSGSTYYADSVKGRFTISRDNAKNTVYLQMNSLKPEDTAVYYCGAVLTRYGYDYWGQGTQVTVSS”, the “polyreactivity (PSR sort gate)” value is on record as “high polyreactivity”.

Take “QVQLVESGGGLVQAGGSLRLSCAASGFTLHSYAMGWYRQAPGKERELVAAITTGGSTYYADSVKGRFTISRDNAKNTVYLQMNSLKPEDTAVYYCAAEDPGPYGGYDYWGQGTQVTVSS”: the “polyreactivity (PSR sort gate)” value was “low polyreactivity”.

Consider “QVQLVESGGGLVQAGGSLRLSCAASGNTFKYYAMGWYRQAPGKERVLVATISRTAGSTYYADSVKGRFTISRDNAKNTVYLQMNSLKPEDTAVYYCNKDRGHPFKYDYWGQGTQVTVSS”, for which the “polyreactivity (PSR sort gate)” value is “low polyreactivity”.

“QVQLVESGGGLVQAGGSLRLSCAASGFTFAGYAMGWYRQAPGKERELVAVITSSDSTYYADSVKGLFTISRDNAKNTDYLQMNSLKPEDTAVYYSAVRSYVNWWSIVKYDYWGQGTQVTVSS”: the “polyreactivity (PSR sort gate)” value is “low polyreactivity”.

On to “QVQLVESGGGLVQAGGSLRLSCAASGSIFKSYAMGWYRQAPGKERELVAAISGSGGRTYYADSVKGRFTISRDNAKNTVYLQMNSLKPEDTAVYYCNALASIRTHTGYAYSPPYDYWGQGTQVTVSS”, for which the “polyreactivity (PSR sort gate)” value is recorded as “high polyreactivity”.

“QVQLVESGGGLVQAGGSLRLSCAASGRTFTWNVMGWYRQAPGKERELVAAITTDDRTYADSVKGRFTISRDNAKNTVYLQMNSLKPEDTAVYYCATVVAWSSRPVGEDYWGQGTQVTVSS”: the “polyreactivity (PSR sort gate)” value is “low polyreactivity”.

For the sequence “QDQLVESGAGLVQAAGSLRLSCAASGSTFDTYALGWYRQAPGKERELVAAISVSGTSTSYADSVKGRFTISRDNAKNTVYLQMNSLKPEDTAVYYCNATDFSRNPGYARPEYDYWGQGTHVTVSS”, the “polyreactivity (PSR sort gate)” value is “low polyreactivity”.

Take “QVQLQESGGGLVQAGGSLRLSCAASGTIFTARFMGWSRQAPGKERDLVATITDGGNTNHADSVKGRFTISRDNAKNTVYLQMNSLKPEDAAVNYSAAGEVDNDTLLYWGQGSQVTVSS”: the “polyreactivity (PSR sort gate)” value is recorded as “low polyreactivity”.

In the case of “QVQLVESGGGLVQAGGSLRLSCAASGFIFKIYTMGWYRQAPGKERELVAAITRRGGRTFYADSVKGRFTISRDNAKNTVYLQMNSLKPEDTAVYYCNAGTKYGTYIATGALKHDYWGQGTQVTVSS”, the “polyreactivity (PSR sort gate)” value is reported as “low polyreactivity”.

“QVKLVESGGGLVQAGGSLRLSCAASGSTFLIYAMGWYRQAPGKERELVAAITVSGGDTYYADSVKGRFTISRDNAKNTVYLQMNSLKPEDTAVYYCAAEGGNDYSSVDAGISYDYWGQGTQVTVSS”: the “polyreactivity (PSR sort gate)” value is given as “low polyreactivity”.

Take “QVQLVESGGGLVQAGGSLRLSCAASGSTFYRYAMGWYRQAPGKERELVAAIDSSGGSTYYPDSVKGRFTISRDNAKNTVYLQMNSLKPEDTAVYYCATDLPPGGYDSWGQVTQVTVSS”: the “polyreactivity (PSR sort gate)” value is listed as “low polyreactivity”.

On to “QVQLVESGGGLVQAGGSLRLSCAASGSIFPDNAMGWYRQAPGKERELVATIRSTGGTNYADSVKGRFTISRDNEKNTVYLQMNSLKPEDTAVYYCATDLWSTTGSEYDYWGQGTQVTVSS”, for which the “polyreactivity (PSR sort gate)” value is “low polyreactivity”.

Turning to “QVQLVESGGGLVQAGVSLRLSCAASGSTFVGYAMGWYRQAPGKERELVAAISYSGGSTYYADSVKGRFTISRDNAKNTVYLQMHSLKPEDTAVYYCAAEWSRHYYYGPRYDYWGQGSQVTVSS”, the “polyreactivity (PSR sort gate)” value is reported as “low polyreactivity”.

Consider “QVQLVESGGGLVQAGGSLRLSCAASGFIFWPYAMGWYRQAPGKERELVAAITTGGSTNYADSVKGRFTISRDNAKNTVYLQMNSLKPEDTAVYYCAKGYYFGYYEFDYWGQGTQVTVSS”, for which the “polyreactivity (PSR sort gate)” value is listed as “high polyreactivity”.
